Numbering of substitutions follows the chain as printed.
Assays:
[1] = biological target: human FGFR1c/KLB cell surface receptor complex on iLite FGF21 reporter cells (human, UniProt P11362 22-822; Q86Z14 1-1044); test: cell-based or functional assay
[2] = biological target: T1, human beta-Klotho (KLB) (human, UniProt Q86Z14 53-997); test: BLI off-rate screen (Octet), Ab captured via Fc;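 note: antibody supernatants applied at 25 µg/mL, dissociation monitored over 1800 s in D-PBS with 0.1% BSA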
T1 construct: also called human KLB
T1 sequence (looked up): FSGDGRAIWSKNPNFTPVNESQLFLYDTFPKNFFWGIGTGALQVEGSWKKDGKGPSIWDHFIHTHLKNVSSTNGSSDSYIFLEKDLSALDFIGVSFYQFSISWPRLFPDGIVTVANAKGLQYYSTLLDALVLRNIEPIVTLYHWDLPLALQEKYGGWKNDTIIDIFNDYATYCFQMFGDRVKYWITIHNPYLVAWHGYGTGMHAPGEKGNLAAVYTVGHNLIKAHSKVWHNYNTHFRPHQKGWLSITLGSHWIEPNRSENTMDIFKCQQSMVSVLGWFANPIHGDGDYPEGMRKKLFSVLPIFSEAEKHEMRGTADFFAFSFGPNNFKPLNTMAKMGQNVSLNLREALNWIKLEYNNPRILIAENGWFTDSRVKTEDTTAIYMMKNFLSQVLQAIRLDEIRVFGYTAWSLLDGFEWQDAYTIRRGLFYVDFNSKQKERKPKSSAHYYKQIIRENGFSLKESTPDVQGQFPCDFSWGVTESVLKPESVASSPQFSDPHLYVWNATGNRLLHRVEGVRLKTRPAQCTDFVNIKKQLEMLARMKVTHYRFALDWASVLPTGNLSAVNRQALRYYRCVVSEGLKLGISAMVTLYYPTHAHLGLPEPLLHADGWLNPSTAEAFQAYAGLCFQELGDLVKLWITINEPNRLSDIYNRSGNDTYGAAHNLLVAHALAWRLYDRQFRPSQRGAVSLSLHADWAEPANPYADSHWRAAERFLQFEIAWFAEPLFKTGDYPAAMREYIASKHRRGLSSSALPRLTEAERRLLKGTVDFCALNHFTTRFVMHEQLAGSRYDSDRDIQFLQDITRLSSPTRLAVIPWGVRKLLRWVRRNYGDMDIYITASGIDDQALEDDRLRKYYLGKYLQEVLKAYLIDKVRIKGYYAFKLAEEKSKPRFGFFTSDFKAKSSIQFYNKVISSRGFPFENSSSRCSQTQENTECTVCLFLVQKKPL

[3] = biological target: cell surface receptor composed of FGFR1c and co-receptor beta-Klotho (KLB) (human, UniProt P11362 22-822; Q86Z14 1-1044); test: cell-based or functional assay
[4] = biological target: T2, human beta-Klotho (KLB) (human, UniProt Q86Z14 53-997); test: BLI off-rate screening (Octet), crude supernatant;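 note: supernatants tested at 25 µg/mL, dissociation from biosensors recorded in D-PBS with 0.1% BSA over 1800 s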
T2 construct: Bought protein; also called human KLB; β-Klotho
T2 sequence (looked up): T1 sequence (looked up)
Throughout, for Mean E max (%): reference of the scale not given here.
Throughout, for Mean E max, Luciferase reporter gene assay: reference of the scale not given here.

cell surface receptor composed of FGFR1c and co-receptor beta-Klotho (KLB), sequence (P11362 22-822, chain 1 of 2): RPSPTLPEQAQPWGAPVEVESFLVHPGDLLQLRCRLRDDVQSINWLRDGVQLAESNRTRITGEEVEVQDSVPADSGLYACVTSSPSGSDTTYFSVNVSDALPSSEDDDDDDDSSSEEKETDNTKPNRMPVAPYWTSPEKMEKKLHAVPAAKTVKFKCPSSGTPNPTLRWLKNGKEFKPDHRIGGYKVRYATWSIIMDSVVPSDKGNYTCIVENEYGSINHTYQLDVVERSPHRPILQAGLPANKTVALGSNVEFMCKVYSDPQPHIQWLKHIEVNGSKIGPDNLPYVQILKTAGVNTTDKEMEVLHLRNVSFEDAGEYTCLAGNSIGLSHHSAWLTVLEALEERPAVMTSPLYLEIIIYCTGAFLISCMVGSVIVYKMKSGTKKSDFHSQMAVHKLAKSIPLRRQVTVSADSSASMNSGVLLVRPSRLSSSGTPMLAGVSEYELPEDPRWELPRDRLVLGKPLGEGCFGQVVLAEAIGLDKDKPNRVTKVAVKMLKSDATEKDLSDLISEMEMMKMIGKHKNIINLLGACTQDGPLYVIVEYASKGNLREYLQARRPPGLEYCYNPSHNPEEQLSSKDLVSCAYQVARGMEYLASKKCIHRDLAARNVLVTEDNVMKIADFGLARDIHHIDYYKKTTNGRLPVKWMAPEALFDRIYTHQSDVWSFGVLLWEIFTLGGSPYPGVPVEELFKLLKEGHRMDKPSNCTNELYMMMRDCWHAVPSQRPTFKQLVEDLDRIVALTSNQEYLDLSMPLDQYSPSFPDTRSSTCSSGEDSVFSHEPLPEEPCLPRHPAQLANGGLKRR
cell surface receptor composed of FGFR1c and co-receptor beta-Klotho (KLB), sequence (Q86Z14 whole entry, chain 2 of 2): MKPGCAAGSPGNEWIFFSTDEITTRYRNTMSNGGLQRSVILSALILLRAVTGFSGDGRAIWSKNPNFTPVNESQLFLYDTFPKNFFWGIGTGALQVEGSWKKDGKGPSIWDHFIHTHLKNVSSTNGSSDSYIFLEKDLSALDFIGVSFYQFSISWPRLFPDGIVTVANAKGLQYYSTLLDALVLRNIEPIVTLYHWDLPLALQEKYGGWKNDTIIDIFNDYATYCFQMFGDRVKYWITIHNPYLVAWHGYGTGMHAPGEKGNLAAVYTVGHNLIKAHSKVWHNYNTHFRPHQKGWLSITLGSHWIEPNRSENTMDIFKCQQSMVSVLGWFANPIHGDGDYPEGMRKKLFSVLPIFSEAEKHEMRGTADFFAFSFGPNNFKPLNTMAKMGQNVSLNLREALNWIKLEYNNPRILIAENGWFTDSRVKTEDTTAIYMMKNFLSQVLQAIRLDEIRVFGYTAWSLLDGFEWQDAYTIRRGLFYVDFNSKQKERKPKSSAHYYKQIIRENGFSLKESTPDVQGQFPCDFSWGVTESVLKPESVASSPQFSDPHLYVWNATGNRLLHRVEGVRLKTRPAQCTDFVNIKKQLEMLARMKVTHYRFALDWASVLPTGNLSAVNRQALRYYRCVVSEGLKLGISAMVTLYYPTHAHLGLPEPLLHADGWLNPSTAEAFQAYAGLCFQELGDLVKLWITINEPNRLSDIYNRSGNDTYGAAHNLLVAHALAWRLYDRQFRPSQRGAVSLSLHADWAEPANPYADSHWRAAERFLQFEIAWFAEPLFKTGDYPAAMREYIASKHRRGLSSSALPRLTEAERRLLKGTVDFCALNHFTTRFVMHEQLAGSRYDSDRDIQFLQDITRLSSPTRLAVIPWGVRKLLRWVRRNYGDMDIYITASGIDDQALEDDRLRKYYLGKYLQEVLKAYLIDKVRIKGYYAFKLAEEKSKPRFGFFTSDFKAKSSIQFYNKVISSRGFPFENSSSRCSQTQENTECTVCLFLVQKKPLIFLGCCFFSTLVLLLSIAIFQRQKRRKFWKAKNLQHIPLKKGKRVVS
human FGFR1c/KLB cell surface receptor complex on iLite FGF21 reporter cells, sequence (P11362 22-822, chain 1 of 2): as the sequence (P11362 22-822, chain 1 of 2) above
human FGFR1c/KLB cell surface receptor complex on iLite FGF21 reporter cells, sequence (Q86Z14 whole entry, chain 2 of 2): as the sequence (Q86Z14 whole entry, chain 2 of 2) above

B1: 16H7 variant, light chain Q88A (antibody, human IgG4 S228P, lambda, V domains shown)
VH: not shown
VL: SYVLTQPPSVSVAPGQTARITCGGNNIGSESVHWYQQKPGQAPVLVVYDDSDRPSGIPERFSGSNSGNTATLTISRVEAGDEADYYCAVWDGNSDHVVFGGGTKLTVLG
notes: IgG4 backbone
Mean E max (%) [1]: 108%
Mean EC50 [1]: 133 pM
koff [2]: 0.00011 s⁻¹

B2: 16H7 light chain variant V32R (antibody, IgG4, V domains shown)
VH: not shown
VL: B1 VL with V32R, A88Q
notes: IgG4 backbone
Mean E max, Luciferase reporter gene assay [3]: 112%
Mean EC50, Luciferase reporter gene assay [3]: 135 pM
koff [4]: 2.3e-06 s⁻¹

B3: 16H7 variant, light chain R53H (antibody, human IgG4 S228P, lambda, V domains shown)
VH: not shown
VL: B1 VL with R53H, A88Q
notes: IgG4 backbone
Mean E max (%) [1]: 103%
Mean EC50 [1]: 153 pM
koff [2]: 0.00015 s⁻¹

B4: 16H7 light chain variant D49W (antibody, IgG4, V domains shown)
VH: not shown
VL: B1 VL with D49W, A88Q
notes: IgG4 backbone
Mean E max, Luciferase reporter gene assay [3]: 101%
Mean EC50, Luciferase reporter gene assay [3]: 126 pM
koff [4]: 0.00032 s⁻¹

B5: 16H7 variant, light chain Q88L (antibody, IgG4, V domains shown)
VH: not shown
VL: B1 VL with A88L
notes: IgG4 backbone; copies: 2 + 2
Mean E max (%) [1]: 107%
Mean EC50 [1]: 134 pM
koff [2]: 9.9e-05 s⁻¹

B6: 16H7 light chain variant D50C (antibody, IgG4, V domains shown)
VH: not shown
VL: B1 VL with D50C, A88Q
notes: IgG4 backbone
Mean E max, Luciferase reporter gene assay [3]: 109%
Mean EC50, Luciferase reporter gene assay [3]: 153 pM
koff [4]: 3.9e-05 s⁻¹

B7: 16H7 variant, light chain R53M (antibody, human IgG4 S228P, lambda, V domains shown)
VH: not shown
VL: B1 VL with R53M, A88Q
notes: IgG4 backbone
Mean E max (%) [1]: 95%
Mean EC50 [1]: 99 pM
koff [2]: 0.00018 s⁻¹

B8: 16H7 variant, light chain R53L (antibody, human IgG4 S228P, lambda, V domains shown)
VH: not shown
VL: B1 VL with R53L, A88Q
notes: IgG4 backbone
Mean E max (%) [1]: 106%
Mean EC50 [1]: 151 pM
koff [2]: 2e-05 s⁻¹

B9: 16H7 variant, light chain S55T (antibody, human IgG4 S228P, lambda, V domains shown)
VH: not shown
VL: B1 VL with S55T, A88Q
notes: IgG4 backbone
Mean E max (%) [1]: 100%
Mean EC50 [1]: 109 pM
koff [2]: 1.3e-05 s⁻¹

B10: 16H7 light chain variant D50E (antibody, IgG4, V domains shown)
VH: not shown
VL: B1 VL with D50E, A88Q
notes: IgG4 backbone
Mean E max, Luciferase reporter gene assay [3]: 91%
Mean EC50, Luciferase reporter gene assay [3]: 123 pM
koff [4]: 0.00016 s⁻¹

B11: 16H7 variant, light chain R53S (antibody, human IgG4 S228P, lambda, V domains shown)
VH: not shown
VL: B1 VL with R53S, A88Q
notes: IgG4 backbone
Mean E max (%) [1]: 105%
Mean EC50 [1]: 113 pM
koff [2]: 0.00029 s⁻¹

B12: 16H7 variant, light chain S55C (antibody, human IgG4 S228P, lambda, V domains shown)
VH: not shown
VL: B1 VL with S55C, A88Q
notes: IgG4 backbone
Mean E max (%) [1]: 91%
Mean EC50 [1]: 244 pM
koff [2]: 6.3e-05 s⁻¹

B13: 16H7 light chain variant D49G (antibody, IgG4, V domains shown)
VH: not shown
VL: B1 VL with D49G, A88Q
notes: IgG4 backbone
Mean E max, Luciferase reporter gene assay [3]: 102%
Mean EC50, Luciferase reporter gene assay [3]: 102 pM
koff [4]: 0.00029 s⁻¹

B14: 16H7 variant, light chain R53I (antibody, human IgG4 S228P, lambda, V domains shown)
VH: not shown
VL: B1 VL with R53I, A88Q
notes: IgG4 backbone
Mean E max (%) [1]: 100%
Mean EC50 [1]: 151 pM
koff [2]: 1.7e-05 s⁻¹

B15: 16H7 light chain variant D50A (antibody, IgG4, V domains shown)
VH: not shown
VL: B1 VL with D50A, A88Q
notes: IgG4 backbone
Mean E max, Luciferase reporter gene assay [3]: 105%
Mean EC50, Luciferase reporter gene assay [3]: 211 pM
koff [4]: 7.6e-05 s⁻¹

B16: 16H7 variant, light chain S51G (antibody, human IgG4 S228P, lambda, V domains shown)
VH: not shown
VL: B1 VL with S51G, A88Q
notes: IgG4 backbone
Mean E max (%) [1]: 104%
Mean EC50 [1]: 129 pM
koff [2]: 0.0001 s⁻¹

B17: 16H7 variant, light chain S55H (antibody, human IgG4 S228P, lambda, V domains shown)
VH: not shown
VL: B1 VL with S55H, A88Q
notes: IgG4 backbone
Mean E max (%) [1]: 111%
Mean EC50 [1]: 122 pM
koff [2]: 4e-06 s⁻¹

B18: 16H7 variant, light chain S55R (antibody, IgG4, V domains shown)
VH: not shown
VL: B1 VL with S55R, A88Q
notes: IgG4 backbone; copies: 2 + 2
Mean E max (%) [1]: 100%
Mean EC50 [1]: 143 pM
koff [2]: 4.9e-05 s⁻¹

B19: 16H7 variant, light chain Q88G (antibody, human IgG4 S228P, lambda, V domains shown)
VH: not shown
VL: B1 VL with A88G
notes: IgG4 backbone
Mean E max (%) [1]: 110%
Mean EC50 [1]: 129 pM
koff [2]: 0.00017 s⁻¹

B20: 16H7 light chain variant D49S (antibody, IgG4, V domains shown)
VH: not shown
VL: B1 VL with D49S, A88Q
notes: IgG4 backbone
Mean E max, Luciferase reporter gene assay [3]: 98%
Mean EC50, Luciferase reporter gene assay [3]: 98 pM
koff [4]: 9.9e-05 s⁻¹

B21: 16H7 variant, light chain S55G (antibody, human IgG4 S228P, lambda, V domains shown)
VH: not shown
VL: B1 VL with S55G, A88Q
notes: IgG4 backbone
Mean E max (%) [1]: 104%
Mean EC50 [1]: 128 pM
koff [2]: 3.5e-05 s⁻¹

B22: 16H7 variant, light chain R53A (antibody, human IgG4 S228P, lambda, V domains shown)
VH: not shown
VL: B1 VL with R53A, A88Q
notes: IgG4 backbone
Mean E max (%) [1]: 89%
Mean EC50 [1]: 132 pM
koff [2]: 0.0002 s⁻¹

B23: 16H7 variant, light chain S55E (antibody, IgG4, V domains shown)
VH: not shown
VL: B1 VL with S55E, A88Q
notes: IgG4 backbone; copies: 2 + 2
Mean E max (%) [1]: 106%
Mean EC50 [1]: 141 pM
koff [2]: 3.8e-05 s⁻¹

B24: 16H7 variant, light chain S55V (antibody, human IgG4 S228P, lambda, V domains shown)
VH: not shown
VL: B1 VL with S55V, A88Q
notes: IgG4 backbone
Mean E max (%) [1]: 100%
Mean EC50 [1]: 131 pM
koff [2]: 4.4e-05 s⁻¹

B25: 16H7 variant, light chain R53Q (antibody, human IgG4 S228P, lambda, V domains shown)
VH: not shown
VL: B1 VL with R53Q, A88Q
notes: IgG4 backbone
Mean E max (%) [1]: 100%
Mean EC50 [1]: 131 pM
koff [2]: 0.00024 s⁻¹

B26: 16H7 variant, light chain R53C (antibody, human IgG4 S228P, lambda, V domains shown)
VH: not shown
VL: B1 VL with R53C, A88Q
notes: IgG4 backbone
Mean E max (%) [1]: 107%
Mean EC50 [1]: 147 pM
koff [2]: 0.00044 s⁻¹

B27: 16H7 variant, light chain S55N (antibody, human IgG4 S228P, lambda, V domains shown)
VH: not shown
VL: B1 VL with S55N, A88Q
notes: IgG4 backbone
Mean E max (%) [1]: 111%
Mean EC50 [1]: 141 pM
koff [2]: 1.7e-05 s⁻¹

B28: 16H7 variant, light chain R53K (antibody, human IgG4 S228P, lambda, V domains shown)
VH: not shown
VL: B1 VL with R53K, A88Q
notes: IgG4 backbone
Mean E max (%) [1]: 98%
Mean EC50 [1]: 114 pM
koff [2]: 4e-05 s⁻¹

B29: 16H7 variant, light chain S55L (antibody, IgG4, V domains shown)
VH: not shown
VL: B1 VL with S55L, A88Q
notes: IgG4 backbone; copies: 2 + 2
Mean E max (%) [1]: 97%
Mean EC50 [1]: 126 pM
koff [2]: 8.4e-05 s⁻¹

B30: 16H7 variant, light chain S55F (antibody, IgG4, V domains shown)
VH: not shown
VL: B1 VL with S55F, A88Q
notes: IgG4 backbone; copies: 2 + 2
Mean E max (%) [1]: 97%
Mean EC50 [1]: 95 pM
koff [2]: 2.4e-05 s⁻¹

B31: 16H7 variant, light chain R53P (antibody, human IgG4 S228P, lambda, V domains shown)
VH: not shown
VL: B1 VL with R53P, A88Q
notes: IgG4 backbone
Mean E max (%) [1]: 92%
Mean EC50 [1]: 126 pM
koff [2]: 0.00028 s⁻¹

B32: 16H7 variant, light chain S55D (antibody, human IgG4 S228P, lambda, V domains shown)
VH: not shown
VL: B1 VL with S55D, A88Q
notes: IgG4 backbone
Mean E max (%) [1]: 109%
Mean EC50 [1]: 146 pM
koff [2]: 3.6e-05 s⁻¹

B33: 16H7 variant, light chain S55I (antibody, human IgG4 S228P, lambda, V domains shown)
VH: not shown
VL: B1 VL with S55I, A88Q
notes: IgG4 backbone
Mean E max (%) [1]: 110%
Mean EC50 [1]: 133 pM
koff [2]: 1.3e-05 s⁻¹

B34: 16H7 variant, light chain S55Y (antibody, IgG4, V domains shown)
VH: not shown
VL: B1 VL with S55Y, A88Q
notes: IgG4 backbone; copies: 2 + 2
Mean E max (%) [1]: 113%
Mean EC50 [1]: 126 pM
koff [2]: 1.8e-05 s⁻¹

B35: 16H7 variant, light chain Q88M (antibody, IgG4, V domains shown)
VH: not shown
VL: B1 VL with A88M
notes: IgG4 backbone; copies: 2 + 2
Mean E max (%) [1]: 90%
Mean EC50 [1]: 104 pM
koff [2]: 9.9e-05 s⁻¹

B36: 16H7 variant, light chain S55P (antibody, human IgG4 S228P, lambda, V domains shown)
VH: not shown
VL: B1 VL with S55P, A88Q
notes: IgG4 backbone
Mean E max (%) [1]: 99%
Mean EC50 [1]: 109 pM
koff [2]: 3.2e-05 s⁻¹

B37: 16H7 variant, light chain R53T (antibody, human IgG4 S228P, lambda, V domains shown)
VH: not shown
VL: B1 VL with R53T, A88Q
notes: IgG4 backbone
Mean E max (%) [1]: 109%
Mean EC50 [1]: 134 pM
koff [2]: 8.7e-05 s⁻¹
